In paper PMC5383250, “Functional studies of E. faecalis RNase J2 and its role in virulence and fitness” (PLoS ONE, 2017):

Biological target: T1, E. faecalis RNase J2 (Enterococcus faecalis (strain OG1RF), UniProt Q836D0 1-562)
T1 construct: RNase J2 of Enterococcus faecalis, product of rnjB (ef1185); 1689 bp fragment PCR amplified from the OG1RF genome with primers 1185NdeF (begins at the ATG) and 1185XhoR (ends at the stop codon), in vector pQE30; recombinant protein M.W. 64.2 kDa; Vector pQE30; also called wild-type RNase J2; rnjB gene product; source: E. coli BL21, purified (Ni-NTA agarose)
T1 sequence (looked up): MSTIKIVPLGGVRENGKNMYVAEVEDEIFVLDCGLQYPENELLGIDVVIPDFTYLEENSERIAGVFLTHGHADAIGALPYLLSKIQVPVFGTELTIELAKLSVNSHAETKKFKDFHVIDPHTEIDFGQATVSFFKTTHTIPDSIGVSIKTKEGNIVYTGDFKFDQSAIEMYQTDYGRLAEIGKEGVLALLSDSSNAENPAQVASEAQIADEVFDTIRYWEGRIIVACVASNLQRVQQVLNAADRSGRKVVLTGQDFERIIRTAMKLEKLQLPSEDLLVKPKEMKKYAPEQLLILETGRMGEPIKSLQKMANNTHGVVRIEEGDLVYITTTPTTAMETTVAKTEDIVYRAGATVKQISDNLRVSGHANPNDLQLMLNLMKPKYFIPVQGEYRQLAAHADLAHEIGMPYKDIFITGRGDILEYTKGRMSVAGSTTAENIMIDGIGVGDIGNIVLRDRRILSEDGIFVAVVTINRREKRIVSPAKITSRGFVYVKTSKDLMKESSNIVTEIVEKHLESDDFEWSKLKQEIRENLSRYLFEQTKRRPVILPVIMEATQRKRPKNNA
Experiment: SPR; Biacore T100; E. faecalis RNase J1 immobilized on a CM5 sensor surface; J2 proteins 400 to 50 nM in duplicate; fitted to the 1:1 binding model
Conditions: both partners purified

B1: E. faecalis RNase J1 (enzyme)
chain: not shown
notes: recombinant protein M.W. 62.6 kDa; also called rnjA gene product; ef2924; source: E. coli BL21, purified (Ni-NTA agarose)
B1 showed a Kd of 74 nM.
